Experiments:
[1] = target: GST-ezrin (amino acids 1-586), P15311
[2] = target: LRRKtide with -2Tyr mutated to Arg
[3] = target: LRRKtide with +1Leu mutated to Ala
[4] = target: T1, chicken maltose binding protein-MYPT (amino acids 714-1004), Q90623
T1 chain: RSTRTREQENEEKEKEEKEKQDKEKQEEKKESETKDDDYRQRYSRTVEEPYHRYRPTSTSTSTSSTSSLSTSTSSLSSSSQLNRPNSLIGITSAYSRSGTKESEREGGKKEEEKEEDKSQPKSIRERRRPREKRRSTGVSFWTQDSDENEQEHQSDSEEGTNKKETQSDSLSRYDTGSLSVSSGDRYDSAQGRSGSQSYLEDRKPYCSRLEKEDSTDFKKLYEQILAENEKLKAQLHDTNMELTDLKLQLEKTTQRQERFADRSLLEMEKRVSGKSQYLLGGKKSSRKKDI

[5] = target: T2, Nictide (RLGWWRFYTLRRARQGNTKQR)
T2 chain: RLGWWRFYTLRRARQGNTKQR

GST-ezrin (amino acids 1-586), P15311, sequence (P15311 whole entry, the tested form may be a part): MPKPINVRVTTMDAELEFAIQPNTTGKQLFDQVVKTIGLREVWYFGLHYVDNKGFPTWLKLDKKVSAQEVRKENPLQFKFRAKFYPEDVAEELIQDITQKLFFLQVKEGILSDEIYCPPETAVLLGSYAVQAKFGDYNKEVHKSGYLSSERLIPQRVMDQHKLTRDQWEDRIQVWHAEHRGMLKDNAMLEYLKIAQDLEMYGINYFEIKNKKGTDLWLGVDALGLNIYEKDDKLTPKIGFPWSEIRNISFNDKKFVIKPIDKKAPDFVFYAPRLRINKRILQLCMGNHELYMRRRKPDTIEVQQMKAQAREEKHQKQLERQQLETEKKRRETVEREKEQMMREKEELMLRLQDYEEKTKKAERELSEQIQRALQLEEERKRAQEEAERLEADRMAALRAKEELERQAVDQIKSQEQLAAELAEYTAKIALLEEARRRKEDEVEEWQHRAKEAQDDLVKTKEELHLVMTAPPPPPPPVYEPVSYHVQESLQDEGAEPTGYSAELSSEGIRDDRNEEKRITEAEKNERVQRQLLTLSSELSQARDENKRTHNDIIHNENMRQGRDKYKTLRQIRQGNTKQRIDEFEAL

B1: rat ROCK2 (amino acids 2-543) (protein)
chain: SRPPPTGKMPGAPEAAAGDGAGAGRQRKLEALIRDPRSPINVESLLDGLNSLVLDLDFPALRKNKNIDNFLNRYEKIVKKIRGLQMKAEDYDVVKVIGRGAFGEVQLVRHKASQKVYAMKLLSKFEMIKRSDSAFFWEERDIMAFANSPWVVQLFCAFQDDRYLYMVMEYMPGGDLVNLMSNYDVPEKWAKFYTAEVVLALDAIHSMGLIHRDVKPDNMLLDKHGHLKLADFGTCMKMDETGMVHCDTAVGTPDYISPEVLKSQGGDGYYGRECDWWSVGVFLFEMLVGDTPFYADSLVGTYSKIMDHKNSLCFPEDTEISKHAKNLICAFLTDREVRLGRNGVEEIKSASFFKNDQWNWDNIRETAAPVVPELSSDIDSSNFDDIEDDKGDVETFPIPKAFVGNQLPFIGFTYFRENLLLSDSPPCRENDAIQTRKSEESQEIQKKLYALEEHLSSEVQAKEELEQKCKSINTRLEKTAKELEEEITFRKNVESTLRQLEREKALLQHKNAEYQRKADHEADKKRNLENDVNSLKDQLEDL
Question: How did the “protein substrate phosphorylation (32P autoradiography)” value (shortened to “protein substrate phosphorylation”) [1] turn out when B1 was run?
Answer: but barely ezrin

Question: And the “fold decrease of Km against wild type LRRKtide” value [2]?
Answer: decreased the Km value over 60-fold

Question: What about the “fold increase of Vmax against wild type LRRKtide” value [2] of the same protein?
Answer: increased the Vmax over 5-fold

Question: And the peptide phosphorylation [3]?
Answer: abolished phosphorylation by ROCK2

Question: What about the “protein substrate phosphorylation” value [4] of the same protein?
Answer: ROCK2 phosphorylated MYPT

B2: GST-LRRK2 1326-2527 [wild type] (protein)
chain: LKKAVPYNRMKLMIVGNTGSGKTTLLQQLMKTKKSDLGMQSATVGIDVKDWPIQIRDKRKRDLVLNVWDFAGREEFYSTHPHFMTQRALYLAVYDLSKGQAEVDAMKPWLFNIKARASSSPVILVGTHLDVSDEKQRKACMSKITKELLNKRGFPAIRDYHFVNATEESDALAKLRKTIINESLNFKIRDQLVVGQLIPDCYVELEKIILSERKNVPIEFPVIDRKRLLQLVRENQLQLDENELPHAVHFLNESGVLLHFQDPALQLSDLYFVEPKWLCKIMAQILTVKVEGCPKHPKGIISRRDVEKFLSKKRKFPKNYMSQYFKLLEKFQIALPIGEEYLLVPSSLSDHRPVIELPHCENSEIIIRLYEMPYFPMGFWSRLINRLLEISPYMLSGRERALRPNRMYWRQGIYLNWSPEAYCLVGSEVLDNHPESFLKITVPSCRKGCILLGQVVDHIDSLMEEWFPGLLEIDICGEGETLLKKWALYSFNDGEEHQKILLDDLMKKAEEGDLLVNPDQPRLTIPISQIAPDLILADLPRNIMLNNDELEFEQAPEFLLGDGSFGSVYRAAYEGEEVAVKIFNKHTSLRLLRQELVVLCHLHHPSLISLLAAGIRPRMLVMELASKGSLDRLLQQDKASLTRTLQHRIALHVADGLRYLHSAMIIYRDLKPHNVLLFTLYPNAAIIAKIADYGIAQYCCRMGIKTSEGTPGFRAPEVARGNVIYNQQADVYSFGLLLYDILTTGGRIVEGLKFPNEFDELEIQGKLPDPVKEYGCAPWPMVEKLIKQCLKENPQERPTSAQVFDILNSAELVCLTRRILLPKNVIVECMVATHHNSRNASIWLGCGHTDRGQLSFLDLNTEGYTSEEVADSRILCLALVHLPVEKESWIVSGTQSGTLLVINTEDGKKRHTLEKMTDSVTCLYCNSFSKQSKQKNFLLVGTADGKLAIFEDKTVKLKGAAPLKILNIGNVSTPLMCLSESTNSTERNVMWGGCGTKIFSFSNDFTIQKLIETRTSQLFSYAAFSDSNIITVVVDTALYIAKQNSPVVEVWDKKTEKLCGLIDCVHFLREVMVKENKESKHKMSYSGRVKTLCLQKNTALWIGTGGGHILLLDLSTRRLIRVIYNFCNSVRVMMTAQLGSLKNVMLVLGYNRKNTEGTQKQKEIQSCLTVWDINLPHEVQNLEKHIEVRKELAEKMRRTSVE
Question: Which “Km of peptide phosphorylation” value [5] does the source give for B2 here?
Answer: a similar Km

Question: What about the “fold decrease of Vmax against LRRK2[G2019S]” value [5] of the same protein?
Answer: ~2-fold lower Vmax

Question: And the “protein substrate phosphorylation” value [1]?
Answer: LRRK2 phosphorylated ezrin

Question: And the “protein substrate phosphorylation” value [4]?
Answer: did not phosphorylate MYPT
